Experimental findings from patent publication US20170037111A1, “Novel peptides and combination of peptides for use in immunotherapy against ovarian cancer and other cancers” (immatics biotechnologies GmbH, priority 2015, published 2017) are described below.

In the assay the target is HLA-A*02:01 (Homo sapiens, UniProt P04439, D140Y/D185E/D98H/E176V/E277Q/G131W/G231S/I119V/I121R/I166T/I218V/L300P/L318F/N151K/N90K/P208A/P217A/Q86G/Q94H/R138H/R169H/T345S). The assay can be described thus: MHC binding assay (UV-ligand exchange, β2m ELISA, peptide exchange yield). The note with it: MHC class I binding score; binding to HLA-A*02:01 ranged by peptide exchange yield (UV-ligand exchange, β2m ELISA). In a few lines: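 Binding is expressed as peptide exchange yield: stabilized MHC complexes were quantified by β2m ELISA, with a 450 nm TMB read-out on streptavidin-coated plates. Complexes came from UV-ligand exchange, where UV irradiation cleaves a photolabile peptide so the candidate peptide can load.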
(In general: ELISA stands for enzyme-linked immunosorbent assay.)

Consider “253 (GLDAATATV; listed as Homo sapiens) [compound 253]”, for which the Peptide exchange result is given as “″++″ (≧20% = ++)”.
The entry for “254 (TLLAFIMEL; listed as Homo sapiens) [compound 254]” is “″+++″ (≧50% = +++)”; for “255 (VLASYNLTV; listed as Homo sapiens) [compound 255]” it is “″+++″ (≧50% = +++)”; for “256 (FLPPEHTIVYI; listed as Homo sapiens) [compound 256]” it is “″+++″ (≧50% = +++)”.
For the substance “257 (SIFSAFLSV; listed as Homo sapiens) [compound 257]”, the Peptide exchange entry is given as “″+++″ (≧50% = +++)”.
“258 (ELAERVPAI; listed as Homo sapiens) [compound 258]”: the Peptide exchange entry is reported as “″++″ (≧20% = ++)”.
Take “261 (YVLEFLEEI; listed as Homo sapiens) [compound 261]”: the Peptide exchange entry is “″++″ (≧20% = ++)”.
As for “262 (LLWGDLIWL; listed as Homo sapiens) [compound 262]”, the Peptide exchange result is reported as “″+++″ (≧50% = +++)”.
Regarding “263 (LLVSNLDFGV; listed as Homo sapiens) [compound 263]”, the Peptide exchange entry was “″+++″ (≧50% = +++)”.
In the case of “264 (SLQEQLHSV; listed as Homo sapiens) [compound 264]”, the Peptide exchange entry is “″+++″ (≧50% = +++)”.
The result for “265 (LLFGGTKTV; listed as Homo sapiens) [compound 265]” reads “″++″ (≧20% = ++)”; that for “266 (KITDTLIHL; listed as Homo sapiens) [compound 266]”, “″+++″ (≧50% = +++)”; that for “267 (ALQDFLLSV; listed as Homo sapiens) [compound 267]”, “″+++″ (≧50% = +++)”.
As for “269 (RVLEVGALQAV; listed as Homo sapiens) [compound 269]”, the Peptide exchange entry was “″++″ (≧20% = ++)”.
Consider “270 (LLLDEEGTFSL; listed as Homo sapiens) [compound 270]”, for which the Peptide exchange entry was “″++″ (≧20% = ++)”.
With “271 (LVYPLELYPA; listed as Homo sapiens) [compound 271]”, the Peptide exchange entry was “″+++″ (≧50% = +++)”.
As to “272 (ALGNTVPAV; listed as Homo sapiens) [compound 272]”, the Peptide exchange result was “″+++″ (≧50% = +++)”.
As to “273 (NLFQSVREV; listed as Homo sapiens) [compound 273]”, the Peptide exchange result is listed as “″++″ (≧20% = ++)”.
Regarding “274 (SLLFSLFEA; listed as Homo sapiens) [compound 274]”, the Peptide exchange entry is “″++″ (≧20% = ++)”.
With “275 (YLVYILNEL; listed as Homo sapiens) [compound 275]”, the Peptide exchange entry was “″++″ (≧20% = ++)”.
Take “276 (ALFTFSPLTV; listed as Homo sapiens) [compound 276]”: the Peptide exchange result is on record as “″+++″ (≧50% = +++)”.
For “277 (LLPPLESLATV; listed as Homo sapiens) [compound 277]”, the Peptide exchange entry is “″++″ (≧20% = ++)”.
The result for “278 (QLLDVVLTI; listed as Homo sapiens) [compound 278]” reads “″++″ (≧20% = ++)”; that for “279 (ALWGGTQPLL; listed as Homo sapiens) [compound 279]”, “″++″ (≧20% = ++)”; that for “280 (VLPDPEVLEAV; listed as Homo sapiens) [compound 280]”, “″+++″ (≧50% = +++)”.
Consider “281 (ILRESTEEL; listed as Homo sapiens) [compound 281]”, for which the Peptide exchange entry is “″+++″ (≧50% = +++)”.
On to “282 (LLADVVPTT; listed as Homo sapiens) [compound 282]”, for which the Peptide exchange result is recorded as “″+++″ (≧50% = +++)”.
With “284 (ILLSQTTGV; listed as Homo sapiens) [compound 284]”, the Peptide exchange result is listed as “″+++″ (≧50% = +++)”.
Take “285 (QLLHVGVTV; listed as Homo sapiens) [compound 285]”: the Peptide exchange result was “″+++″ (≧50% = +++)”.
For “286 (YLFPGIPEL; listed as Homo sapiens) [compound 286]”, the Peptide exchange entry is on record as “″+++″ (≧50% = +++)”.
For the substance “287 (FLNEFFLNV; listed as Homo sapiens) [compound 287]”, the Peptide exchange entry is given as “″+++″ (≧50% = +++)”.
On to “288 (NLINEINGV; listed as Homo sapiens) [compound 288]”, for which the Peptide exchange result is “″+++″ (≧50% = +++)”.
The result for “289 (VLLEIEDLQV; listed as Homo sapiens) [compound 289]” reads “″++++″ (≧75% = ++++)”.
“295 (VLDRESPNV; listed as Homo sapiens) [compound 295]”: the Peptide exchange entry is “″+++″ (≧50% = +++)”.
Turning to “296 (FMEGAIIYV; listed as Homo sapiens) [compound 296]”, the Peptide exchange result is recorded as “″+++″ (≧50% = +++)”.
As to “297 (VLADIELAQA; listed as Homo sapiens) [compound 297]”, the Peptide exchange entry is “″+++″ (≧50% = +++)”.
With “298 (VMITKLVEV; listed as Homo sapiens) [compound 298]”, the Peptide exchange result is listed as “″+++″ (≧50% = +++)”.
With “299 (YLLETSGNL; listed as Homo sapiens) [compound 299]”, the Peptide exchange result was “″+++″ (≧50% = +++)”.
Turning to “300 (ALLGQTFSL; listed as Homo sapiens) [compound 300]”, the Peptide exchange entry is reported as “″+++″ (≧50% = +++)”.
“301 (FLVEDLVDSL; listed as Homo sapiens) [compound 301]”: the Peptide exchange entry is recorded as “″+++″ (≧50% = +++)”.
For the substance “302 (ALLQEGEVYSA; listed as Homo sapiens) [compound 302]”, the Peptide exchange result is “″+++″ (≧50% = +++)”.
On to “303 (AILPQLFMV; listed as Homo sapiens) [compound 303]”, for which the Peptide exchange entry is “″++++″ (≧75% = ++++)”.
For the substance “304 (MTLGQIYYL; listed as Homo sapiens) [compound 304]”, the Peptide exchange entry is given as “″+++″ (≧50% = +++)”.
Turning to “305 (SIANFSEFYV; listed as Homo sapiens) [compound 305]”, the Peptide exchange result is recorded as “″++++″ (≧75% = ++++)”.
For “306 (ALVNVQIPL; listed as Homo sapiens) [compound 306]”, the Peptide exchange entry is given as “″+++″ (≧50% = +++)”.
“307 (ALPVSLPQI; listed as Homo sapiens) [compound 307]”: the Peptide exchange entry was “″+++″ (≧50% = +++)”.
In the case of “308 (SQYSGQLHEV; listed as Homo sapiens) [compound 308]”, the Peptide exchange entry is recorded as “″+++″ (≧50% = +++)”.
With “309 (GLFDGVPTTA; listed as Homo sapiens) [compound 309]”, the Peptide exchange entry is given as “″+++″ (≧50% = +++)”.
On to “310 (FLVDTPLARA; listed as Homo sapiens) [compound 310]”, for which the Peptide exchange entry was “″++++″ (≧75% = ++++)”.
As for “311 (RLYTGMHTV; listed as Homo sapiens) [compound 311]”, the Peptide exchange entry was “″+++″ (≧50% = +++)”.
In the case of “312 (IISDLTIAL; listed as Homo sapiens) [compound 312]”, the Peptide exchange entry was “″+++″ (≧50% = +++)”.
Turning to “313 (VLFDDELLMV; listed as Homo sapiens) [compound 313]”, the Peptide exchange entry is “″+++″ (≧50% = +++)”.
In the case of “314 (ALIAEGIALV; listed as Homo sapiens) [compound 314]”, the Peptide exchange entry is reported as “″+++″ (≧50% = +++)”.
